# Source: PMC2787366
# Experiments:
# Test in all cases: fluorescence polarisation
# [1] = molecular target: G9aK185me3 peptide (fluorescence polarization)
# [2] = molecular target: H3 peptide dimethylated on lysine 9 (fluorescence polarization)
# [3] = molecular target: H3K9me3 peptide (fluorescence polarization)
binder,measurement,setting,value
hCDYL1b chromodomain (1–78 aa) (domain or fragment) MASEELYEVERIVDKRKNKKGKTEYLVRWKGYDSEDDTWEPEQHLVNCEEYIHDFNRRHTEKQKESTLTRTNRTSPNN,Kd,[1],8 µM
same,fold weaker than with the H3K9me3 peptide,[2],1.5 fold
same,Kd,[3],2 µM
